Experimental data reported in patent publication US20250136688A1 (Janssen / Centocor, published 2025).

Legend:
[1] = target: T1, ectonucleotide pyrophosphatase/phosphodiesterase family member 3 (ENPP3) (human, UniProt O14638 1-875); assay: flow cytometry on VMRCRCW cells
T1 construct: whole, on cells; also called CD203c
T1 sequence (looked up): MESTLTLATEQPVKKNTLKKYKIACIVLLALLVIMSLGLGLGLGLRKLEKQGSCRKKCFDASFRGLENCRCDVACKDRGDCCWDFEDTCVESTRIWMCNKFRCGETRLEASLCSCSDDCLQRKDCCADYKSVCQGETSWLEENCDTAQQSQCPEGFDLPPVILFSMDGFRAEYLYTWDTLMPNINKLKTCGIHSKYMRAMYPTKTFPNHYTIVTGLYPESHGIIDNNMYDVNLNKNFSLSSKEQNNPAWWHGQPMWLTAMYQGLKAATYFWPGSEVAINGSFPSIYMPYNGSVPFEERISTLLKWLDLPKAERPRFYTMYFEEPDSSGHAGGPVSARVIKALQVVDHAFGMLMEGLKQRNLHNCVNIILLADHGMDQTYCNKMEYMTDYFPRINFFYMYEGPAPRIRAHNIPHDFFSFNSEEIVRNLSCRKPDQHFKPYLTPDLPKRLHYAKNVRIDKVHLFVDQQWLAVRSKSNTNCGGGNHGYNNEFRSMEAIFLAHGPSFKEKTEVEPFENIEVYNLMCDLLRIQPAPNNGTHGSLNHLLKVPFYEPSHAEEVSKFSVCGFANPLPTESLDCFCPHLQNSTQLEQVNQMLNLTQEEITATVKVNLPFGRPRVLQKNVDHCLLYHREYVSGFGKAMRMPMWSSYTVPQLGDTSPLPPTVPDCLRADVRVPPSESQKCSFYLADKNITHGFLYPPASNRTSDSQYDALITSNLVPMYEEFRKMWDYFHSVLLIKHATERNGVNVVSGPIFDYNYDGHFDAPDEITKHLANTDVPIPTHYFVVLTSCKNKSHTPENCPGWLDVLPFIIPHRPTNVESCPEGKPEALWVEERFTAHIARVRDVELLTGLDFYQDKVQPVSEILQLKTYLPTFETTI

cyno ENPP3 = target: T2, cyno ENPP3 (cynomolgus monkey, UniProt A0A2K5TKP4 1-874); assay: cell-based or functional assay
T2 sequence: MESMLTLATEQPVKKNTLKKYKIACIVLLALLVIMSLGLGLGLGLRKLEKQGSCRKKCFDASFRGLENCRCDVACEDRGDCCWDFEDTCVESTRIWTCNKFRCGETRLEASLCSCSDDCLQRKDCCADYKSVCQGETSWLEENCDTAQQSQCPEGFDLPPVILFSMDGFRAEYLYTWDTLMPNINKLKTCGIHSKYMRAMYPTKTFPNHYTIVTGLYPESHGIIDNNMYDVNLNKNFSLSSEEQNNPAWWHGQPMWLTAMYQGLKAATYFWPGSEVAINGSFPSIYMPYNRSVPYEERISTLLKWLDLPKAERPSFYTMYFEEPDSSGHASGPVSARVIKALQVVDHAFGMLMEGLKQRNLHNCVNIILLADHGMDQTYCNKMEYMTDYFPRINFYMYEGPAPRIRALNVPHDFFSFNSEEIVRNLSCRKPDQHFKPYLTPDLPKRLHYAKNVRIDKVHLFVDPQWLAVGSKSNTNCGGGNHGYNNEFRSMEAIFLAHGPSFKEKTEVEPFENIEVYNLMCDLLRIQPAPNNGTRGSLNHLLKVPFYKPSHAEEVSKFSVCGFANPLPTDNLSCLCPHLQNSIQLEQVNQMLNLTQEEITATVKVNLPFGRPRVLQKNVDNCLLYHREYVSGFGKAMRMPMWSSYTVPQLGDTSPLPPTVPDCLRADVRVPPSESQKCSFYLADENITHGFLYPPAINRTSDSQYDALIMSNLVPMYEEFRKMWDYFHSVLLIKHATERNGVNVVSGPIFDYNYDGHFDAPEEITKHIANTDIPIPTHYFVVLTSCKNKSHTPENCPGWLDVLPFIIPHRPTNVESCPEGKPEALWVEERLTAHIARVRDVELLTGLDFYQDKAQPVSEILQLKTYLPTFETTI

Human CD3 epsilon [2] = target: T3, Human CD3 epsilon (human, UniProt P07766 23-207); assay: flow cytometry on T cells of healthy human donor 110040278
T3 construct: Stood on human T cells (pan-T cells, isolated donor T cells) as part of the TCR/CD3 complex; the other chains of the complex are not written here; also called CD3ε; CD3R

Human CD3 epsilon [3] = target: T3, Human CD3 epsilon; assay: flow cytometry on T cells, average of 6 healthy human donors
[4] = target: T1, ectonucleotide …; assay: flow cytometry on A704 cells
Human CD3 epsilon [5] = target: T3, Human CD3 epsilon; assay: flow cytometry on T cells of healthy human donor 110048457
[6] = target: T1, ectonucleotide …; assay: cell-based or functional assay
Human CD3 epsilon [7] = target: T3, Human CD3 epsilon; assay: flow cytometry on T cells of healthy human donor 110044049

T3 sequence (P07766 23-207 limits assumed): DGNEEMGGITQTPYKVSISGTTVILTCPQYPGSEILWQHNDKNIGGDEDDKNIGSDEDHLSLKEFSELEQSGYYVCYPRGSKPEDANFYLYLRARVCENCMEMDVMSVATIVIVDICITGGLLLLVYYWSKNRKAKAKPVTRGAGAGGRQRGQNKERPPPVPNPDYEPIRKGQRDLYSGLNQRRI

EC50 [1]: 0.5 nM
T-cell activation EC50, human T cells, HepG2-KO cyno ENPP3-OE cells, E:T 3:1 (cyno ENPP3): 0.023 nM
EC50 (Human CD3 epsilon [2]): 253 nM
EC50 (Human CD3 epsilon [3]): 177 nM
EC50 [4]: 1.01 nM
EC50 (Human CD3 epsilon [5]): 132 nM
EC50 (Human CD3 epsilon [7]): 188 nM
B1: NPP3B815 (NPP3B56×CD3B2030-N106A-spFv) (bispecific antibody, human IgG1, kappa, L234A L235A)
chain: EIVLTQSPATLSASPGERVTLSCSASSSVSYMNWYQQKPGCAPRRWIYDSSKLASGVPARFSGSGSGRDYTLTISSLEPEDFAVYYCQQWSRNPPTFGGGTKVEIKGGGSGGSGGCPPCGGSGGQVQLVQSGAEVKKPGSSVKVSCKASGYTFTRSTMHWVKQAPGQGLEWIGYINPSSAYTNYNQKFQGRVTLTADKSTSTAYMELSSLRSEDTAVYYCASPQVHYDYAGFPYWGCGTLVTVSSEPKSSDKTHTCPPCPAPEAAGGPSVFLFPPKPKDTLMISRTPEVTCVVVSVSHEDPEVKFNWYVDGVEVHNAKTKPREEQYNSTYRVVSVLTVLHQDWLNGKEYKCKVSNKALPAPIEKTISKAKGQPREPQVYTLPPSREEMTKNQVSLWCLVKGFYPSDIAVEWESNGQPENNYKTTPPVLDSDGSFFLYSKLTVDKSRWQQGNVFSCSVMHEALHNHYTQKSLSLSPGK
heavy: EVQLVESGGGRVKPGGSLRLSCAASGFTFSDYSMNWVRQAPGKGLEWVSSISSISSYVKYADSVKGRFTMSRDNAKNSLFLQMNSLRDEDMAVYYCARGHYFDYWGQGTLVTVSSASTKGPSVFPLAPSSKSTSGGTAALGCLVKDYFPEPVTVSWNSGALTSGVHTFPAVLQSSGLYSLSSVVTVPSSSLGTQTYICNVNHKPSNTKVDKKVEPKSCDKTHTCPPCPAPEAAGGPSVFLFPPKPKDTLMISRTPEVTCVVVSVSHEDPEVKFNWYVDGVEVHNAKTKPREEQYNSTYRVVSVLTVLHQDWLNGKEYKCKVSNKALPAPIEKTISKAKGQPREPQVYTLPPSREEMTKNQVSLSCAVKGFYPSDIAVEWESNGQPENNYKTTPPVLDSDGSFFLVSKLTVDKSRWQQGNVFSCSVMHEALHNRFTQKSLSLSPGK
light: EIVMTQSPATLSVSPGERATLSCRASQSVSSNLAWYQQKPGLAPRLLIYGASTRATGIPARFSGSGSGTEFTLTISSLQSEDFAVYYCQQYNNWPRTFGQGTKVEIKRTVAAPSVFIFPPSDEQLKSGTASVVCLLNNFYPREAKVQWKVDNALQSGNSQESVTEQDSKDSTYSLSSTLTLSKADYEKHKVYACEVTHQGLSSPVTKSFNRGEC
notes: Heavy Chain 1 = anti-CD3 spFv-Fc (knob); Heavy Chain 2 and Light Chain = anti-ENPP3 Fab arm NPP3B56 (hole); IgG1 with L234A, L235A, D265S; also called ENPP3×CD3
Cytotox. EC50, human T cells, HepG2-KO cyno ENPP3-OE cells, E:T 3:1 (cyno ENPP3): 0.079 nM
killing EC50 @ 72 hrs, A704, T-cell donor 110040278, E:T 1:1 [6]: 0.075 nM
killing EC50 @ 72 hrs, A704, T-cell donor 110040278, E:T 3:1 [6]: 0.0484 nM
killing EC50 @ 72 hrs, A704, T-cell donor 110042496, E:T 1:1 [6]: 0.132 nM
killing EC50 @ 72 hrs, A704, T-cell donor 110042496, E:T 3:1 [6]: 0.0696 nM
killing EC50 @ 72 hrs, A704, T-cell donor 110042593, E:T 1:1 [6]: 0.114 nM
killing EC50 @ 72 hrs, A704, T-cell donor 110042593, E:T 3:1 [6]: 0.0336 nM
killing EC50 @ 72 hrs, A704, T-cell donor 110044049, E:T 3:1 [6]: 0.0524 nM
killing EC50 @ 72 hrs, A704, T-cell donor 888668965, E:T 3:1 [6]: 0.0454 nM
killing EC50 @ 72 hrs, VMRCRCW, T-cell donor 110040278, E:T 1:1 [6]: 0.243 nM
killing EC50 @ 72 hrs, VMRCRCW, T-cell donor 110040278, E:T 1:3 [6]: 0.456 nM
killing EC50 @ 72 hrs, VMRCRCW, T-cell donor 110040278, E:T 3:1 [6]: 0.0923 nM
killing EC50 @ 72 hrs, VMRCRCW, T-cell donor 110042496, E:T 1:1 [6]: 0.465 nM
killing EC50 @ 72 hrs, VMRCRCW, T-cell donor 110042496, E:T 3:1 [6]: 0.128 nM
killing EC50 @ 72 hrs, VMRCRCW, T-cell donor 110042593, E:T 1:1 [6]: 0.225 nM
killing EC50 @ 72 hrs, VMRCRCW, T-cell donor 110042593, E:T 3:1 [6]: 0.0795 nM
killing EC50 @ 72 hrs, VMRCRCW, T-cell donor 110044049, E:T 1:1 [6]: 0.151 nM
killing EC50 @ 72 hrs, VMRCRCW, T-cell donor 110044049, E:T 1:3 [6]: 0.226 nM
killing EC50 @ 72 hrs, VMRCRCW, T-cell donor 110044049, E:T 3:1 [6]: 0.115 nM
killing EC50 @ 72 hrs, VMRCRCW, T-cell donor 110048457, E:T 1:1 [6]: 0.177 nM
killing EC50 @ 72 hrs, VMRCRCW, T-cell donor 110048457, E:T 1:3 [6]: 0.276 nM
killing EC50 @ 72 hrs, VMRCRCW, T-cell donor 110048457, E:T 3:1 [6]: 0.372 nM
killing EC50 @ 72 hrs, VMRCRCW, T-cell donor 888668965, E:T 1:1 [6]: 0.273 nM
killing EC50 @ 72 hrs, VMRCRCW, T-cell donor 888668965, E:T 1:3 [6]: 0.469 nM
killing EC50 @ 72 hrs, VMRCRCW, T-cell donor 888668965, E:T 3:1 [6]: 0.156 nM
killing EC50 @ 120 hrs, A704, T-cell donor 110040278, E:T 1:1 [6]: 0.041 nM
killing EC50 @ 120 hrs, A704, T-cell donor 110040278, E:T 1:3 [6]: 0.149 nM
killing EC50 @ 120 hrs, A704, T-cell donor 110042496, E:T 1:1 [6]: 0.073 nM
killing EC50 @ 120 hrs, A704, T-cell donor 110042496, E:T 1:3 [6]: 0.191 nM
killing EC50 @ 120 hrs, A704, T-cell donor 110042593, E:T 1:1 [6]: 0.048 nM
killing EC50 @ 120 hrs, A704, T-cell donor 110042593, E:T 1:3 [6]: 0.106 nM
killing EC50 @ 120 hrs, A704, T-cell donor 110044049, E:T 1:1 [6]: 0.125 nM
killing EC50 @ 120 hrs, A704, T-cell donor 888668965, E:T 1:3 [6]: 0.163 nM
killing EC50 @ 120 hrs, VMRCRCW, T-cell donor 110040278, E:T 1:1 [6]: 0.264 nM
killing EC50 @ 120 hrs, VMRCRCW, T-cell donor 110040278, E:T 1:3 [6]: 0.332 nM
killing EC50 @ 120 hrs, VMRCRCW, T-cell donor 110042496, E:T 1:1 [6]: 0.454 nM
killing EC50 @ 120 hrs, VMRCRCW, T-cell donor 110042496, E:T 1:3 [6]: 0.5 nM
killing EC50 @ 120 hrs, VMRCRCW, T-cell donor 110042593, E:T 1:1 [6]: 0.218 nM
killing EC50 @ 120 hrs, VMRCRCW, T-cell donor 110042593, E:T 1:3 [6]: 0.485 nM
killing EC50 @ 120 hrs, VMRCRCW, T-cell donor 110044049, E:T 1:1 [6]: 0.216 nM
killing EC50 @ 120 hrs, VMRCRCW, T-cell donor 110044049, E:T 1:3 [6]: 0.337 nM
killing EC50 @ 120 hrs, VMRCRCW, T-cell donor 110048457, E:T 1:1 [6]: 0.21 nM
killing EC50 @ 120 hrs, VMRCRCW, T-cell donor 110048457, E:T 1:3 [6]: 0.267 nM
killing EC50 @ 120 hrs, VMRCRCW, T-cell donor 888668965, E:T 1:1 [6]: 0.345 nM
killing EC50 @ 120 hrs, VMRCRCW, T-cell donor 888668965, E:T 1:3 [6]: 0.379 nM
